Measurements reported in patent US20080280333.

Target: T1, GlxR (Corynebacterium glutamicum) (UniProt Q79VI7)
T1 sequence: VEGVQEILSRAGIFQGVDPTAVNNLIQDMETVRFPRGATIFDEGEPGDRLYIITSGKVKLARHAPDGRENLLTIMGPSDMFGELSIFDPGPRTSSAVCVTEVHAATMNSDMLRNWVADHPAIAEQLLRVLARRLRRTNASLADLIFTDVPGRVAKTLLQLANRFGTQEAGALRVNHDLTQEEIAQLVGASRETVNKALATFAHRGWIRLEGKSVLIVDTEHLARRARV
Assay: cell_activity

Substance: PaceB-lacZYA reporter (aceB promoter region)
- activity (mU beta-galactosidase) (E. coli DH5alphaF'-145 with pSL145, 27 mU with empty vector pMT1, repression): 2.5
- activity (beta-galactosidase activity) (E. coli HL994, chromosomal PaceB-lacZYA, 237 with empty vector): 128
